For series [1], the system named is HeLa Kyoto. The series is described as follows: solubility in G1/S (NP-40 vs SDS abundance) (log2 ratio); higher = more soluble. Particulars: cell cycle stage: G1/S.
The test system of series [2] is HeLa Kyoto. The series is described as follows: solubility change mitosis vs G1/S (difference of NP-40 vs SDS log2 ratios) (log2 ratio difference); higher = more soluble in mitosis.
For series [3], the system named is HeLa Kyoto. The series is described as follows: thermal stability score vs G1/S (z-score of summed log2 fold changes over temperatures); higher = more thermally stable than in G1/S.
Series [4] deals with HeLa Kyoto. Put plainly: melting temperature (median over replicates), in situ; higher = more thermally stable.
The mark [5] stands for this setting: cell cycle stage: early G1 (4.5 h after nocodazole release).
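Throughout, for melting temperature (median over replicates), in situ: HeLa Kyoto cells synchronized by double thymidine or nocodazole block, proteins quantified by TMT10plex mass spectrometry, three independent biological replicates.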
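Throughout, for solubility change mitosis vs G1/S (difference of NP-40 vs SDS log2 ratios): synchronized HeLa Kyoto cells (double thymidine block for G1/S, nocodazole release for mitosis), protein amounts in NP-40 versus SDS lysates quantified by mass spectrometry, three biological replicates.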
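Throughout, for solubility in G1/S (NP-40 vs SDS abundance): HeLa Kyoto cells arrested at G1/S by double thymidine block, proteins quantified by TMT10plex mass spectrometry in mild NP-40 versus SDS extracts, three biological replicates.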
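Throughout, for thermal stability score vs G1/S (z-score of summed log2 fold changes over temperatures): synchronized HeLa Kyoto cells, proteins quantified by TMT10plex mass spectrometry, three biological replicates, mitosis taken 0.5 h after nocodazole release, G1/S directly after double thymidine block.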

In the case of “MPHLPLASFRPPFWGLRHSRGLPRFHSVSTQSEPHGSPISRRNREAKQKRLREKQATLEAEIAGESKSPAESIKAWRPKELVLYEIPTKPGEKKDVSGPLPPAYSPRYVEAAWYPWWVREGFFKPEYQARLPQATGETFSMCIPPPNVTGSLHIGHALTVAIQDALVRWHRMRGDQVLWVPGSDHAGIATQAVVEKQLWKERGVRRHELSREAFLREVWQWKEAKGGEICEQLRALGASLDWDRECFTMDVGSSVAVTEAFVRLYKAGLLYRNHQLVNWSCALRSAISDIEVENRPLPGHTQLRLPGCPTPVSFGLLFSVAFPVDGEPDAEVVVGTTRPETLPGDVAVAVHPDDSRYTHLHGRQLRHPLMGQPLPLITDYAVQPHVGTGAVKVTPAHSPADAEMGARHGLSPLNVIAEDGTMTSLCGDWLQGLHRFVAREKIMSVLSEWGLFRGLQNHPMVLPICSRSGDVIEYLLKNQWFVRCQEMGARAAKAVESGALELSPSFHQKNWQHWFSHIGDWCVSRQLWWGHQIPAYLVVEDHAQGEEDCWVVGRSEAEAREVAAELTGRPGAELTLERDPDVLDTWFSSALFPFSALGWPQETPDLARFYPLSLLETGSDLLLFWVGRMVMLGTQLTGQLPFSKVLLHPMVRDRQGRKMSKSLGNVLDPRDIISGVEMQVLQEKLRSGNLDPAELAIVAAAQKKDFPHGIPECGTDALRFTLCSHGVQAGDLHLSVSEVQSCRHFCNKIWNALRFILNALGEKFVPQPAEELSPSSPMDAWILSRLALAAQECERGFLTRELSLVTHALHHFWLHNLCDVYLEAVKPVLWHSPRPLGPPQVLFSCADLGLRLLAPLMPFLAEELWQRLPPRPGCPPAPSISVAPYPSACSLEHWRQPELERRFSRVQEVVQVLRALRATYQLTKARPRVLLQSSEPGDQGLFEAFLEPLGTLGYCGAVGLLPPGAAAPSGWAQAPLSDTAQVYMELQGLVDPQIQLPLLAARRYKLQKQLDSLTARTPSEGEAGTQRQQKLSSLQLELSKLDKAASHLRQLMDEPPAPGSPEL [VARS2]”, in series [1], the “solubility in G1/S (log2)” value is -0.0605. For the same sequence, the “solubility change mitosis (log2)” value in series [2] stood at 0.0161. The figures for the thermal stability score in series [3] (setting [5]) and in series [3] (cell cycle stage: mitosis) were 0.335 and 0.452, respectively. In addition, the melting temperature came out at 52 °C in series [4] (cell cycle stage: G1/S) and 52.1 °C in series [4] (cell cycle stage: mitosis).
Regarding “MPILKQLVSSSVHSKRRSRADLTAEMISAPLGDFRHTMHVGRAGDAFGDTSFLNSKAGEPDGESLDEQPSSSSSKRSLLSRKFRGSKRSQSVTRGEREQRDMLGSLRDSALFVKNAMSLPQLNEKEAAEKGTSKLPKSLSSSPVKKANDGEGGDEEAGTEEAVPRRNGAAGPHSPDPLLDEQAFGDLTDLPVVPKATYGLKHAESIMSFHIDLGPSMLGDVLSIMDKEEWDPEEGEGGYHGDEGAAGTITQAPPYAVAAPPLARQEGKAGPDLPSLPSHALEDEGWAAAAPSPGSARSMGSHTTRDSSSLSSCTSGILEERSPAFRGPDRARAAVSRQPDKEFSFMDEEEEDEIRV [CDC42EP4]”, the “solubility in G1/S (log2)” value in series [1] is 0.487. The “solubility change mitosis (log2)” value in series [2] is -0.0259. Besides, the values for the thermal stability score in series [3] (setting [5]) and in series [3] (cell cycle stage: mitosis) were -3.73 and -2.19, respectively. Also, the values for the melting temperature in series [4] (cell cycle stage: G1/S) and in series [4] (cell cycle stage: mitosis) were 53.6 °C and 51.8 °C, respectively.
Regarding “MPKCPKCNKEVYFAERVTSLGKDWHRPCLKCEKCGKTLTSGGHAEHEGKPYCNHPCYAAMFGPKGFGRGGAESHTFK [CRIP1]”, in series [1], the “solubility in G1/S (log2)” value was -0.362. Also, the “solubility change mitosis (log2)” value in series [2] was 0.414. Moreover, the thermal stability score in series [3] (setting [5]) is -4.54; in series [3] (cell cycle stage: mitosis) it was -5.63. The melting temperature amounted to 57.6 °C in series [4] (cell cycle stage: G1/S) and 53.5 °C in series [4] (cell cycle stage: mitosis).
Consider “MPKFKAARGVGGQEKHAPLADQILAGNAVRAGVREKRRGRGTGEAEEEYVGPRLSRRILQQARQQQEELEAEHGTGDKPAAPRERTTRLGPRMPQDGSDDEDEEWPTLEKAATMTAAGHHAEVVVDPEDERAIEMFMNKNPPARRTLADIIMEKLTEKQTEVETVMSEVSGFPMPQLDPRVLEVYRGVREVLSKYRSGKLPKAFKIIPALSNWEQILYVTEPEAWTAAAMYQATRIFASNLKERMAQRFYNLVLLPRVRDDVAEYKRLNFHLYMALKKALFKPGAWFKGILIPLCESGTCTLREAIIVGSIITKCSIPVLHSSAAMLKIAEMEYSGANSIFLRLLLDKKYALPYRVLDALVFHFLGFRTEKRELPVLWHQCLLTLVQRYKADLATDQKEALLELLRLQPHPQLSPEIRRELQSAVPRDVEDVPITVE [BYSL]”, for which the “solubility in G1/S (log2)” value in series [1] was -0.343. Also, in series [2], the “solubility change mitosis (log2)” value was found to be 0.115. Also, the thermal stability score is 1.85 in series [3] (setting [5]) and 5.44 in series [3] (cell cycle stage: mitosis). For the same sequence, the results for the melting temperature in series [4] (cell cycle stage: G1/S) and in series [4] (cell cycle stage: mitosis) were 48.3 °C and 49 °C, respectively.
For the sequence “MPKGGRKGGHKGRARQYTSPEEIDAQLQAEKQKAREEEEQKEGGDGAAGDPKKEKKSLDSDESEDEEDDYQQKRKGVEGLIDIENPNRVAQTTKKVTQLDLDGPKELSRREREEIEKQKAKERYMKMHLAGKTEQAKADLARLAIIRKQREEAARKKEEERKAKDDATLSGKRMQSLSLNK [PDAP1]”, the “solubility in G1/S (log2)” value in series [1] amounted to 0.734. The “solubility change mitosis (log2)” value in series [2] turned out to be 0.473. Besides, the thermal stability score in series [3] (setting [5]) is -6.85; in series [3] (cell cycle stage: mitosis), -6.55. For the same sequence, the melting temperature in series [4] (cell cycle stage: G1/S) was determined as 57.9 °C; in series [4] (cell cycle stage: mitosis) it was 54.2 °C.
In the case of “MPKHEFSVDMTCGGCAEAVSRVLNKLGGVKYDIDLPNKKVCIESEHSMDTLLATLKKTGKTVSYLGLE [ATOX1]”, in series [1], the “solubility in G1/S (log2)” value was -0.375. In series [2], the “solubility change mitosis (log2)” value turned out to be 0.149. For the same sequence, the thermal stability score in series [3] (setting [5]) is -3.27; in series [3] (cell cycle stage: mitosis), -2.04. The melting temperature in series [4] (cell cycle stage: G1/S) is 54.8 °C; in series [4] (cell cycle stage: mitosis), 52.8 °C.

The record behind these values is the supplement of paper PMC5998384.
